Data as given in the supplement of paper PMC11246515.
± gives the standard deviation of the averaged measurements.

Test: total protein half-life in vivo (active degradation + dilution); higher = more stable protein
[1] = E. coli NCM3722 delta-lon, growth: N-lim chemostat, doubling time 6 h
[2] = E. coli NCM3722 delta-smpB, growth: N-lim chemostat, doubling time 6 h
[3] = wild type E. coli NCM3722, growth: C-lim chemostat, doubling time 6 h
[4] = wild type E. coli NCM3722, growth: C-lim chemostat, doubling time 12 h
[5] = E. coli NCM3722 delta-clpP delta-lon delta-hslV, growth: N-lim chemostat, doubling time 6 h
[6] = E. coli NCM3722 delta-clpP, growth: N-lim chemostat, doubling time 6 h
[7] = wild type E. coli NCM3722, growth: C-lim chemostat, doubling time 3 h
[8] = wild type E. coli NCM3722, growth: N-lim chemostat, doubling time 6 h
[9] = wild type E. coli NCM3722, growth: N-lim chemostat, doubling time 12 h
[10] = wild type E. coli NCM3722, growth: P-lim chemostat, doubling time 6 h
[11] = wild type E. coli NCM3722, growth: P-lim chemostat, doubling time 12 h
[12] = E. coli NCM3722 delta-hslV, growth: N-lim chemostat, doubling time 6 h

MVLQSTRWLALGYFTYFFSYGIFLPFWSVWLKGIGLTPETIGLLLGAGLVARFLGSLLIAPRVSDPSRLISALRVLALLTLLFAVAFWAGAHVAWLMLVMIGFNLFFSPLVPLTDALANTWQKQFPLDYGKVRLWGSVAFVIGSALTGKLVTMFDYRVILALLTLGVASMLLGFLIRPTIQPQGASRQQESTGWSAWLALVRQNWRFLACVCLLQGAHAAYYGFSAIYWQAAGYSASAVGYLWSLGVVAEVIIFALSNKLFRRCSARDMLLISAICGVVRWGIMGATTALPWLIVVQILHCGTFTVCHLAAMRYIAARQGSEVIRLQAVYSAVAMGGSIAIMTVFAGFLYQYLGHGVFWVMALVALPAMFLRPKVVPSC
total protein half-life in vivo [1]: 6.67 h
total protein half-life in vivo [2]: 4.51 h
total protein half-life in vivo [3]: 2.77 h
total protein half-life in vivo [4]: 10.4 ± 0.17 h

MRTLQGWLLPVFMLPMAVYAQEATVKEVHDAPAVRGSIIANMLQEHDNPFTLYPYDTNYLIYTQTSDLNKEAIASYDWAENARKDEVKFQLSLAFPLWRGILGPNSVLGASYTQKSWWQLSNSEESSPFRETNYEPQLFLGFATDYRFAGWTLRDVEMGYNHDSNGRSDPTSRSWNRLYTRLMAENGNWLVEVKPWYVVGNTDDNPDITKYMGYYQLKIGYHLGDAVLSAKGQYNWNTGYGGAELGLSYPITKHVRLYTQVYSGYGESLIDYNFNQTRVGVGVMLNDLF [P0A921]
total protein half-life in vivo [5]: 6.42 ± 0.11 h
total protein half-life in vivo [6]: 6.15 ± 0.48 h
total protein half-life in vivo [1]: 7.24 ± 0.85 h
total protein half-life in vivo [2]: 5.96 ± 0.66 h
total protein half-life in vivo [7]: 3.01 ± 0.048 h
total protein half-life in vivo [3]: 6.37 ± 1.1 h
total protein half-life in vivo [4]: 14.2 ± 0.33 h
total protein half-life in vivo [8]: 6.28 ± 0.44 h
total protein half-life in vivo [9]: 13.3 ± 0.75 h
total protein half-life in vivo [10]: 6.13 ± 0.1 h
total protein half-life in vivo [11]: 14.2 ± 0.75 h

MTRAVKPRRFAIRPIIYASVLSAGVLLCAFSAHADERDQLKSIQADIAAKERAVRQKQQQRASLLAQLKKQEEAISEATRKLRETQNTLNQLNKQIDEMNASIAKLEQQKAAQERSLAAQLDAAFRQGEHTGIQLILSGEESQRGQRLQAYFGYLNQARQETIAQLKQTREEVAMQRAELEEKQSEQQTLLYEQRAQQAKLTQALNERKKTLAGLESSIQQGQQQLSELRANESRLRNSIARAEAAAKARAEREAREAQAVRDRQKEATRKGTTYKPTESEKSLMSRTGGLGAPRGQAFWPVRGPTLHRYGEQLQGELRWKGMVIGASEGTEVKAIADGRVILADWLQGYGLVVVVEHGKGDMSLYGYNQSALVSVGSQVRAGQPIALVGSSGGQGRPSLYFEIRRQGQAVNPQPWLGR
total protein half-life in vivo [5]: 6.31 ± 0.39 h
total protein half-life in vivo [6]: 6.29 ± 0.37 h
total protein half-life in vivo [12]: 6.76 ± 0.51 h
total protein half-life in vivo [1]: 7.049 ± 0.041 h
total protein half-life in vivo [2]: 6 ± 0.41 h
total protein half-life in vivo [7]: 3.18 ± 0.08 h
total protein half-life in vivo [3]: 5.778 ± 0.045 h
total protein half-life in vivo [4]: 11.3 ± 0.53 h
total protein half-life in vivo [8]: 6.31 ± 0.22 h
total protein half-life in vivo [9]: 13.1 ± 0.39 h
total protein half-life in vivo [10]: 5.92 ± 0.37 h
total protein half-life in vivo [11]: 12.9 ± 0.95 h

MAMPLSLLIGLRFSRGRRRGGMVSLISVISTIGIALGVAVLIVGLSAMNGFERELNNRILAVVPHGEIEAVDQPWTNWQEALDHVQKVPGIAAAAPYINFTGLVESGANLRAIQVKGVNPQQEQRLSALPSFVQGDAWRNFKAGEQQIIIGKGVADALKVKQGDWVSIMIPNSNPEHKLMQPKRVRLHVAGILQLSGQLDHSFAMIPLADAQQYLDMGSSVSGIALKMTDVFNANKLVRDAGEVTNSYVYIKSWIGTYGYMYRDIQMIRAIMYLAMVLVIGVACFNIVSTLVMAVKDKSGDIAVLRTLGAKDGLIRAIFVWYGLLAGLFGSLCGVIIGVVVSLQLTPIIEWIEKLIGHQFLSSDIYFIDFLPSELHWLDVFYVLVTALLLSLLASWYPARRASNIDPARVLSGQ
total protein half-life in vivo [5]: 5.8 ± 0.74 h
total protein half-life in vivo [6]: 6.23 ± 0.16 h
total protein half-life in vivo [12]: 5.66 ± 0.51 h
total protein half-life in vivo [1]: 5.4 ± 0.27 h
total protein half-life in vivo [2]: 5.77 ± 0.5 h
total protein half-life in vivo [7]: 3.32 ± 0.27 h
total protein half-life in vivo [3]: 5.759 ± 0.033 h
total protein half-life in vivo [8]: 5.94 ± 0.43 h
total protein half-life in vivo [9]: 13.9 ± 2.2 h
total protein half-life in vivo [10]: 6.023 ± 0.042 h
total protein half-life in vivo [11]: 12.2 ± 0.26 h

MFPEYRDLISRLKNENPRFMSLFDKHNKLDHEIARKEGSDGRGYNAEVVRMKKQKLQLKDEMLKILQQESVKEV [P0ACW6]
total protein half-life in vivo [7]: 1.33 h
total protein half-life in vivo [3]: 1.87 ± 0.1 h
total protein half-life in vivo [4]: 1.75 h

MTFIKGLPLMLLTISLGCNAAVQPDRTRIVFNANDKATSLRIENQSDKLPYLAYSWIENEKGEKSDALLVALPPIQRLEPKATSQVRVVKQASTTQLPGDRETLFFYNMREIPPAPDKSSDHAILQVAIQSRIKLFWRPAALRKKAGEKVELQLQVSQQGNQLTLKNPTAYYLTIAYLGRNEKGVLPGFKTVMVAPFSTVNTNTGSYSGSQFYLGYMDDYGALRMTTLNCSGQCRLQAVEAK
total protein half-life in vivo [5]: > 8 h
total protein half-life in vivo [9]: 14.3 h

MQGTKIRLLAGGLLMMATAGYVQADALQPDPAWQQGTLSNGLQWQVLTTPQRPSDRVEIRLLVNTGSLAESTQQSGYSHAIPRIALTQSGGLDAAQARSLWQQGIDPKRPMPPVIVSYDTTLFNLSLPNNRNDLLKEALSYLANATGKLTITPETINHALQSQDMVATWPADTKEGWWRYRLKGSTLLGHDPADPLKQPVEAEKIKDFYQKWYTPDAMTLLVVGNVDARSVVDQINKTFGELKGKRETPAPVPTLSPLRAEAVSIMTDAVRQDRLSIMWDTPWQPIRESAALLRYWRADLAREALFWHVQQALSASNSKDIGLGFDCRVLYLRAQCAINIESPNDKLNSNLNLVARELAKVRDKGLPEEEFNALVAQKKLELQKLFAAYARADTDILMGQRMRSLQNQVVDIAPEQYQKLRQDFLNSLTVEMLNQDLRQQLSNDMALILLQPKGEPEFNMKALQAVWDQIMAPSTAAATTSVATDDVHPEVTDIPPAQ
total protein half-life in vivo [5]: 5.67 ± 0.23 h
total protein half-life in vivo [6]: 6.56 ± 1.4 h
total protein half-life in vivo [12]: 6.33 ± 0.55 h
total protein half-life in vivo [2]: 6.16 ± 0.15 h
total protein half-life in vivo [7]: 3.02 ± 0.35 h
total protein half-life in vivo [3]: 6.42 ± 0.41 h
total protein half-life in vivo [4]: 9.83 ± 0.8 h
total protein half-life in vivo [8]: 6.08 ± 0.24 h
total protein half-life in vivo [9]: 12.55 ± 0.063 h
total protein half-life in vivo [10]: 6.3 ± 0.32 h
total protein half-life in vivo [11]: 14.2 ± 0.33 h

MTNNPLIPQSKLPQLGTTIFTQMSALAQQHQAINLSQGFPDFDGPRYLQERLAHHVAQGANQYAPMTGVQALREAIAQKTERLYGYQPDADSDITVTAGATEALYAAITALVRNGDEVICFDPSYDSYAPAIALSGGIVKRMALQPPHFRVDWQEFAALLSERTRLVILNTPHNPSATVWQQADFAALWQAIAGHEIFVISDEVYEHINFSQQGHASVLAHPQLRERAVAVSSFGKTYHMTGWKVGYCVAPAPISAEIRKVHQYLTFSVNTPAQLALADMLRAEPEHYLALPDFYRQKRDILVNALNESRLEILPCEGTYFLLVDYSAVSTLDDVEFCQWLTQEHGVAAIPLSVFCADPFPHKLIRLCFAKKESTLLAAAERLRQL
total protein half-life in vivo [5]: 2.63 ± 0.15 h
total protein half-life in vivo [6]: 1.93 ± 0.071 h
total protein half-life in vivo [12]: 1.69 ± 0.11 h
total protein half-life in vivo [1]: 2.09 h
total protein half-life in vivo [2]: 2.01 ± 0.052 h
total protein half-life in vivo [7]: 2.48 ± 0.11 h
total protein half-life in vivo [3]: 3.9 ± 0.38 h
total protein half-life in vivo [4]: 5.92 ± 0.72 h
total protein half-life in vivo [8]: 1.95 h
total protein half-life in vivo [10]: 5.33 ± 1.2 h
total protein half-life in vivo [11]: 8.16 ± 1 h

MNVFSQTQRYKALFWLSLFHLLVITSSNYLVQLPVSILGFHTTWGAFSFPFIFLATDLTVRIFGAPLARRIIFAVMIPALLISYVISSLFYMGSWQGFGALAHFNLFVARIATASFMAYALGQILDVHVFNRLRQSRRWWLAPTASTLFGNVSDTLAFFFIAFWRSPDAFMAEHWMEIALVDYCFKVLISIVFFLPMYGVLLNMLLKRLADKSEINALQAS
total protein half-life in vivo [7]: 2.3 h

MKVLVIGNGGREHALAWKAAQSPLVETVFVAPGNAGTALEPALQNVAIGVTDIPALLDFAQNEKIDLTIVGPEAPLVKGVVDTFRAAGLKIFGPTAGAAQLEGSKAFTKDFLARHKIPTAEYQNFTEVEPALAYLREKGAPIVIKADGLAAGKGVIVAMTLEEAEAAVHDMLAGNAFGDAGHRIVIEEFLDGEEASFIVMVDGEHVLPMATSQDHKRVGDKDTGPNTGGMGAYSPAPVVTDDVHQRTMERIIWPTVKGMAAEGNTYTGFLYAGLMIDKQGNPKVIEFNCRFGDPETQPIMLRMKSDLVELCLAACESKLDEKTSEWDERASLGVVMAAGGYPGDYRTGDVIHGLPLEEVAGGKVFHAGTKLADDEQVVTNGGRVLCVTALGHTVAEAQKRAYALMTDIHWDDCFCRKDIGWRAIEREQN
total protein half-life in vivo [5]: 5.13 ± 0.32 h
total protein half-life in vivo [6]: 4.89 ± 0.38 h
total protein half-life in vivo [12]: 4.3 ± 0.28 h
total protein half-life in vivo [1]: 4.91 ± 0.24 h
total protein half-life in vivo [2]: 4.44 ± 0.17 h
total protein half-life in vivo [7]: 3.38 ± 0.24 h
total protein half-life in vivo [3]: 6.37 ± 0.4 h
total protein half-life in vivo [4]: 10.5 ± 0.14 h
total protein half-life in vivo [8]: 4.62 ± 0.25 h
total protein half-life in vivo [9]: 7.03 ± 0.35 h
total protein half-life in vivo [10]: 6.097 ± 0.048 h
total protein half-life in vivo [11]: 12.7 ± 0.7 h

MITIPITLRMLIAKYLCLLKPFWLRKNNKTSVLLIIIILAMILGVVKIQVWLNDWNNDFFNALSQKETDKLWQLVLWFPALLGIFVLISVNKTWLIKLLTIRWREWLTDYYLNRWFADKNYYFTQIYGEHKNTDNPDQRIAEDILLLISKTLSLSFGFIQSLSMLITFTVILWESAGTLSFTVGGTEWNIQGYMVYTVVLIVIGGTLFTHKVGKRIRPLNVEKQRSEATFRTNLVQHNKQAELIALSNAESLQRQELSDNFHTIKENWHRLMNRQRWLDYWQNIYSRSLSVLPYFLLLPQFISGQINLGGLMKSRQAFMLVSNNLSWFIYKYDELAELAAVIDRLYEFHQLTEQRPTNKPKNCQHAVQVADASIRTPDNKIILENLNFHVSPGKWLLLKGYSGAGKTTLLKTLSHCWPWFKGDISSPADSWYVSQTPLIKTGLLKEIICKALPLPVDDKSLSEVLHQVGLGKLAARIHDHDRWGDILSSGEKQRIALARLILRRPKWIFLDETTSHLEEQEAIRLLRLVREKLPTSGVIMVTHQPGVWNLADDICDISAVL
total protein half-life in vivo [7]: 3.2 ± 0.6 h
total protein half-life in vivo [3]: 5.29 ± 0.53 h
total protein half-life in vivo [4]: 11.5 ± 1.1 h
